Assay results reported in IntAct's records for PubMed 25910212.

What was measured:
[1] = target: MTUS2, Q5JR59-3
[2] = target: goga2_human GOLGA2 (UniProt Q08379)
[3] = target: kxdl1_human KXD1 (UniProt Q9BQD3)
[4] = target: md1l1_human MAD1L1 (UniProt Q9Y6D9)
[5] = target: syce1_human SYCE1 (UniProt Q8N0S2)
[6] = target: CAGE1, Q8TC20-4
[7] = target: TNNT1, P13805-3
[8] = target: syce1_human SYCE1 (UniProt Q8N0S2); remark: listed apart in the source
[9] = target: ifit3_human IFIT3 (UniProt O14879)
Chain of ifit3_human IFIT3 (O14879 whole entry): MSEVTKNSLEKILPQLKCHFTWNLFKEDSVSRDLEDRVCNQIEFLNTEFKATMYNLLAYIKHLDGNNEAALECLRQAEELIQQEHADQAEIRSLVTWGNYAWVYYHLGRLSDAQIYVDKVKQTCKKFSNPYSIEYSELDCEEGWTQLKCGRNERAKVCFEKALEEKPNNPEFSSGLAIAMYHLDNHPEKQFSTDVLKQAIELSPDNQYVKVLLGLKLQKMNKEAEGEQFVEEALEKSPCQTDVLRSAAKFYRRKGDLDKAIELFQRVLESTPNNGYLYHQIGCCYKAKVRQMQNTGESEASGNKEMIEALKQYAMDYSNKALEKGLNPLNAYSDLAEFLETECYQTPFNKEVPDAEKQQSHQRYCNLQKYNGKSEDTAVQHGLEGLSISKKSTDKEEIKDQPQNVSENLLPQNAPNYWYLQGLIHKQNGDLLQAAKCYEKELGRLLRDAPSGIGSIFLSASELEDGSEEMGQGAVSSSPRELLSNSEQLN

[10] = target: tfpt_human TFPT (UniProt P0C1Z6)
Chain of tfpt_human TFPT (P0C1Z6 whole entry): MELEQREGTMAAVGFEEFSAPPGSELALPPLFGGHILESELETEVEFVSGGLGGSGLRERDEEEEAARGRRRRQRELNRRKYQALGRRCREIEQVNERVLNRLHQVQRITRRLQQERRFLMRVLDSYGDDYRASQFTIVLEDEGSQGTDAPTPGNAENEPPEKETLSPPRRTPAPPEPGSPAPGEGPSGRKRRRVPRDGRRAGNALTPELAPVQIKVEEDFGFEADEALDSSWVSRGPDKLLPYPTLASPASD

[11] = target: KRT40 (UniProt Q6A162)
[12] = target: tpp2_human TPP2 (UniProt P29144)
[13] = target: tsg10_human TSGA10 (UniProt Q9BZW7)
[14] = target: T1, kash5_human KASH5 (UniProt Q8N6L0)
T1 sequence: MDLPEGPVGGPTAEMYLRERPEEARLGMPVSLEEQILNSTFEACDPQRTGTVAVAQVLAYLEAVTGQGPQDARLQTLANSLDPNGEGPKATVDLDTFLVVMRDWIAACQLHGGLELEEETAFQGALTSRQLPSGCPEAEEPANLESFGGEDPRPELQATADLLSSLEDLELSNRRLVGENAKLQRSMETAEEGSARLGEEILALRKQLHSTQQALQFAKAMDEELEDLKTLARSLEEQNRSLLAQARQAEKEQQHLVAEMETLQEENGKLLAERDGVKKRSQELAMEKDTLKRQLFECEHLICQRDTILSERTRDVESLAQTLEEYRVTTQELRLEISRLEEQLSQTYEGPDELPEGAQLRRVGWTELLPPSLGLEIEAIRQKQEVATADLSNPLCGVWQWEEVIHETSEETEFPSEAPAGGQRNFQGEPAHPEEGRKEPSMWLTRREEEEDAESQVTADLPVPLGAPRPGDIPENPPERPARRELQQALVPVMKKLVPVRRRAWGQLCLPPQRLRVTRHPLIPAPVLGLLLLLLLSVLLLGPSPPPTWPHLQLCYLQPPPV

[15] = target: MTUS2, Q5JR59-3; remark: listed apart in the source
[16] = target: T2, fsd2_human FSD2 (UniProt A1L4K1)
T2 sequence: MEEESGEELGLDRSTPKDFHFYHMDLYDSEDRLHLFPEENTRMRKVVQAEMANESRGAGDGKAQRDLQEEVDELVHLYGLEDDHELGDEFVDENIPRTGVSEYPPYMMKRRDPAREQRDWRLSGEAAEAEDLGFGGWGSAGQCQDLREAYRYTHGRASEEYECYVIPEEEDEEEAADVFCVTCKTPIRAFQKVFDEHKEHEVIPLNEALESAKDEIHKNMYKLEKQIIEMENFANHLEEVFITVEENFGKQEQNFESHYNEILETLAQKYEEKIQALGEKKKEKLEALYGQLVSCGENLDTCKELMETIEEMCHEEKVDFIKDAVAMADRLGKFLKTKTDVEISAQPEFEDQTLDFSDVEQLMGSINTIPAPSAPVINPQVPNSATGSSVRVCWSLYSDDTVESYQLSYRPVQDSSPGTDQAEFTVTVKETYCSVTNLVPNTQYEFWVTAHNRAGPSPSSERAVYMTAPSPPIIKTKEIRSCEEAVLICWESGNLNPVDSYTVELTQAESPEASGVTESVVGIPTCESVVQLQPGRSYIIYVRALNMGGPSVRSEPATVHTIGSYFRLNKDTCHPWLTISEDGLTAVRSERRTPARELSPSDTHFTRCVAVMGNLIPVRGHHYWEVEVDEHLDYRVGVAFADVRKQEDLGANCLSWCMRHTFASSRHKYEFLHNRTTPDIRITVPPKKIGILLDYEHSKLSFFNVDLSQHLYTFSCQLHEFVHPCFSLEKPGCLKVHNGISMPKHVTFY

[17] = target: goga2_human GOLGA2 (UniProt Q08379); remark: listed apart in the source
[18] = target: hem1_human ALAS1 (UniProt P13196)
[19] = target: tfcp2_human TFCP2 (UniProt Q12800)
[20] = target: T3, cep70_human CEP70 (UniProt Q8NHQ1)
T3 sequence: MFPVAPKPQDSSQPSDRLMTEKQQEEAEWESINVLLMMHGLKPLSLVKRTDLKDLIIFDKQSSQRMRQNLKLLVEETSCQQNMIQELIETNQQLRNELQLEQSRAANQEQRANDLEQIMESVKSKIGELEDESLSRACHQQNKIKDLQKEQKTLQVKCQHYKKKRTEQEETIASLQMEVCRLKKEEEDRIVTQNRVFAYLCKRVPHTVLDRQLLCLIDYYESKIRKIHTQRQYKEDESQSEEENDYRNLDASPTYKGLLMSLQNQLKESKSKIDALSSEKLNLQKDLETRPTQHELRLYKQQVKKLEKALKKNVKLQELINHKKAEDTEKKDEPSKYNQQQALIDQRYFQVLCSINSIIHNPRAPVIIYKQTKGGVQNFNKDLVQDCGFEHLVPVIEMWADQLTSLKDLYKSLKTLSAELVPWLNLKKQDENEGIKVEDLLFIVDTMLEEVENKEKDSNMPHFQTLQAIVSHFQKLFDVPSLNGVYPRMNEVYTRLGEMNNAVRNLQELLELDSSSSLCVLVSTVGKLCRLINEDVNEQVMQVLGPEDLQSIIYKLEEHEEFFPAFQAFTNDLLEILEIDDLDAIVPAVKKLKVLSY

[21] = target: cap2_human CAP2 (UniProt P40123)
[22] = target: cap2_human CAP2 (UniProt P40123); remark: listed apart in the source
[23] = target: cof2_human CFL2 (UniProt Q9Y281)
[24] = target: ifit3_human IFIT3 (UniProt O14879); remark: listed apart in the source
[25] = target: CAGE1, Q8TC20-4; remark: listed apart in the source

Chain of CAGE1, Q8TC20-4 (Q8TC20 other isoform, or with tags, fused parts or gaps): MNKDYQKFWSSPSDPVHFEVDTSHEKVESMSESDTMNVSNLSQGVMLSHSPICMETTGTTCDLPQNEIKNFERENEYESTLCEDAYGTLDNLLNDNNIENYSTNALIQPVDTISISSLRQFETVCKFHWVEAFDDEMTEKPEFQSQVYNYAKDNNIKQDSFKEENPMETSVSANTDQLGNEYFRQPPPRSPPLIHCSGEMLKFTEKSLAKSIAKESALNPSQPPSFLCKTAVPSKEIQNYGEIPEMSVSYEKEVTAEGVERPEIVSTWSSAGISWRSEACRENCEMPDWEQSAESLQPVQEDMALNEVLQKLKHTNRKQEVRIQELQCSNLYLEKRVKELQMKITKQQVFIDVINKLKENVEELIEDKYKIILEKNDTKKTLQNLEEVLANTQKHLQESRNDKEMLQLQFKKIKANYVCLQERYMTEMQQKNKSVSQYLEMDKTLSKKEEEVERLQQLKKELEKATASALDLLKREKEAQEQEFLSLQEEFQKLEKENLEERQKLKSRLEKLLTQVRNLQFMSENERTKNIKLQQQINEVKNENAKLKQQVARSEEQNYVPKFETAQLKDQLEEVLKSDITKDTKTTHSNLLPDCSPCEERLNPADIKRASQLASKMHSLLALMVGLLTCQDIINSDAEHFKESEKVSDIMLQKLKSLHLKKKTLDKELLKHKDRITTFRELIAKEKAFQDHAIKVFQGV
Chain of syce1_human SYCE1 (Q8N0S2 whole entry): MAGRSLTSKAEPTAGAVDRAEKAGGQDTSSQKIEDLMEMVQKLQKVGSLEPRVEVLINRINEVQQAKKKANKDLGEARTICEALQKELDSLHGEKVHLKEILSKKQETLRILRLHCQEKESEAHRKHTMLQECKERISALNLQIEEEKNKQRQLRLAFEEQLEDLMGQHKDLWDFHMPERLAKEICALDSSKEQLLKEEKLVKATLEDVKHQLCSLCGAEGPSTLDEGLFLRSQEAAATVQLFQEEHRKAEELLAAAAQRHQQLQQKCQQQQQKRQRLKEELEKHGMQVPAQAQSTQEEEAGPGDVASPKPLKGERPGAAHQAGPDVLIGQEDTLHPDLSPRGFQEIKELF
Chain of goga2_human GOLGA2 (Q08379 whole entry): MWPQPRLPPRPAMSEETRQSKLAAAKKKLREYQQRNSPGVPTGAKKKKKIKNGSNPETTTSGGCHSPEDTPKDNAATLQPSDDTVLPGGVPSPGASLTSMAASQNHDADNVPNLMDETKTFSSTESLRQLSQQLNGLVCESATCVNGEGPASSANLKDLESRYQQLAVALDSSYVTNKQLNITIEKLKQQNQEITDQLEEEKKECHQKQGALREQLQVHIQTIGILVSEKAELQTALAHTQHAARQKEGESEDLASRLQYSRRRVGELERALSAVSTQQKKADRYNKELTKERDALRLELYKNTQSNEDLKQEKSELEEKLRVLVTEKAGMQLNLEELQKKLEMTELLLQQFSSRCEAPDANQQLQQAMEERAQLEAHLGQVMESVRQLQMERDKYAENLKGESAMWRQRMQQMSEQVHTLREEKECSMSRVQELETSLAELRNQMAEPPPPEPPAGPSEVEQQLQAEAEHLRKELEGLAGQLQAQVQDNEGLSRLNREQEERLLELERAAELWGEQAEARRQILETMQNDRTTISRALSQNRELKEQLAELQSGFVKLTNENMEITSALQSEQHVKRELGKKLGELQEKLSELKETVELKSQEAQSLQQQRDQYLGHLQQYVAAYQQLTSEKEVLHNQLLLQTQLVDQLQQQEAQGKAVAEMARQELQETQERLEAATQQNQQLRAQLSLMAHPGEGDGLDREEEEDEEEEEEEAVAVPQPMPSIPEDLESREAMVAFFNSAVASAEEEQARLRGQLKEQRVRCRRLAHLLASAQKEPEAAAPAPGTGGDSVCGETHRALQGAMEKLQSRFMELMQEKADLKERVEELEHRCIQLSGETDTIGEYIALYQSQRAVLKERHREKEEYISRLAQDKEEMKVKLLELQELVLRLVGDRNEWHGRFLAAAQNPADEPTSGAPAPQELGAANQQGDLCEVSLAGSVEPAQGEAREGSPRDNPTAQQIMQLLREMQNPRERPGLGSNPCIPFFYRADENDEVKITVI
Chain of Tropomyosin alpha-1 chain (Homo sapiens), P09493-10 V95A (P09493 other isoform, or with tags, fused parts or gaps V95A): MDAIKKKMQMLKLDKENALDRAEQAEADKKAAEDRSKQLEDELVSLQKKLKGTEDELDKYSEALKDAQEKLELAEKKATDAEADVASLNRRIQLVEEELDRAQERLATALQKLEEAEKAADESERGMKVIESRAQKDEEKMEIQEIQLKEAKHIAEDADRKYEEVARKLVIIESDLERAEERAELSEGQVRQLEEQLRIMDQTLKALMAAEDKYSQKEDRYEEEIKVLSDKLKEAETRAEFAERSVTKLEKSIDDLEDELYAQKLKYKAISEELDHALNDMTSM
Chain of Tropomyosin alpha-1 chain (Homo sapiens), P09493-10 D175N (P09493 other isoform, or with tags, fused parts or gaps D175N): as the sequence (P09493 other isoform, or with tags, fused parts or gaps V95A) above
Chain of TNNT1, P13805-3 (P13805 other isoform, or with tags, fused parts or gaps): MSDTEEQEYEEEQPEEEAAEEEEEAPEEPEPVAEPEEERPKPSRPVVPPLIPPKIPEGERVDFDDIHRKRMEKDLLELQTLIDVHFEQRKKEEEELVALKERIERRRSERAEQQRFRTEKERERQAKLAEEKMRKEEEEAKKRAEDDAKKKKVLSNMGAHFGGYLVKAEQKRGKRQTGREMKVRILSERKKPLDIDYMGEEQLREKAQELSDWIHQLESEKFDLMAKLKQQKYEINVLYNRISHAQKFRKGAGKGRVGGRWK
Chain of md1l1_human MAD1L1 (Q9Y6D9 whole entry): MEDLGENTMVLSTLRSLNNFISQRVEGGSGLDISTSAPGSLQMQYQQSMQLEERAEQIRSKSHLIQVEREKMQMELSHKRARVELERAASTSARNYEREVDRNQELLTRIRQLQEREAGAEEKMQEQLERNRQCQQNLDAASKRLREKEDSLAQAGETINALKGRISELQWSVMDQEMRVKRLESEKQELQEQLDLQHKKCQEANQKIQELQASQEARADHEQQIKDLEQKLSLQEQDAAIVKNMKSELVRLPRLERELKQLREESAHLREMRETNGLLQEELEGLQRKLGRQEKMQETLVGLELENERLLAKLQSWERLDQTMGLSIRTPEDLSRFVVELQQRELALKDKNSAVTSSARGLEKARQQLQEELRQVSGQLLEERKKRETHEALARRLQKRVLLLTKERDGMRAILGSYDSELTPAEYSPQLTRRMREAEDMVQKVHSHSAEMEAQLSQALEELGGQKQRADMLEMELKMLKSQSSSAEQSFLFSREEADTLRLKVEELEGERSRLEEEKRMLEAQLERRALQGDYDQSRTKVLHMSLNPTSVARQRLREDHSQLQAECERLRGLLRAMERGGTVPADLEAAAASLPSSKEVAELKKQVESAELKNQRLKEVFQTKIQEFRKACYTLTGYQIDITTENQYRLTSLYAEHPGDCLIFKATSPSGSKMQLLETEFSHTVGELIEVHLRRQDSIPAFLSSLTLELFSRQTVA
Chain of kxdl1_human KXD1 (Q9BQD3 whole entry): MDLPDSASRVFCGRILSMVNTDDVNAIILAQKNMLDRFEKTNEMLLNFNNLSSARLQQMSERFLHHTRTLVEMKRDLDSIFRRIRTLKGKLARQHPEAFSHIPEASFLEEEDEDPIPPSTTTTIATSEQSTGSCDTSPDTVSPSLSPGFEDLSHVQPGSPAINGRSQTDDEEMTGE
Chain of MTUS2, Q5JR59-3 (Q5JR59 other isoform, or with tags, fused parts or gaps): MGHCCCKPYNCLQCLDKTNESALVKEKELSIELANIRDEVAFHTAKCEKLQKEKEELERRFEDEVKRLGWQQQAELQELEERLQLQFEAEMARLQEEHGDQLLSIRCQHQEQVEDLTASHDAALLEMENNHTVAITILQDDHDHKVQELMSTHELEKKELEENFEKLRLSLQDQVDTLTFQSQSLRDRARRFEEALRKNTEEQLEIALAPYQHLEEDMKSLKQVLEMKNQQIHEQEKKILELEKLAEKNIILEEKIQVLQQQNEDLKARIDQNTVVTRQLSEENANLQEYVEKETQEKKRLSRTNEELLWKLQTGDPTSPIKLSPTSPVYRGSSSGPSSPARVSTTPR
Chain of Cytochrome c (Homo sapiens), P99999 G42S (P99999 whole entry G42S): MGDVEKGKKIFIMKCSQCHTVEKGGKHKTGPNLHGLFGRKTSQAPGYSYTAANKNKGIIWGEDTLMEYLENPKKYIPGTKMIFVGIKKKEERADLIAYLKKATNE

## Zinc finger protein 624 (Homo sapiens), Q9P2J8 K135N
[1]
  effect of a mutation on the interaction: with no effect

## Tropomyosin alpha-1 chain (Homo sapiens), P09493-10 V95A
[2]
  effect of a mutation on the interaction: disrupting interaction strength
[3]
  effect of a mutation on the interaction: with no effect
[4]
  effect of a mutation on the interaction: with no effect
[5]
  effect of a mutation on the interaction: disrupting interaction strength
[6]
  effect of a mutation on the interaction: with no effect
[7]
  effect of a mutation on the interaction: with no effect
[8]
  effect of a mutation on the interaction: with no effect
[9]
  effect of a mutation on the interaction: with no effect
[10]
  effect of a mutation on the interaction: with no effect

## Cytochrome c (Homo sapiens), P99999 G42S
[11]
  effect of a mutation on the interaction: with no effect

## DNA polymerase beta (Homo sapiens) (from UniProt P06746) R137Q
[12]
  effect of a mutation on the interaction: with no effect

## Parafibromin (Homo sapiens) (from UniProt Q6P1J9) L64P
[13]
  effect of a mutation on the interaction: disrupting interaction strength
[14]
  effect of a mutation on the interaction: disrupting interaction strength
[15]
  effect of a mutation on the interaction: disrupting interaction strength
[16]
  effect of a mutation on the interaction: disrupting interaction strength
[17]
  effect of a mutation on the interaction: disrupting interaction strength
[18]
  effect of a mutation on the interaction: disrupting interaction strength
[19]
  effect of a mutation on the interaction: disrupting interaction strength
[20]
  effect of a mutation on the interaction: disrupting interaction strength

## Actin, cytoplasmic 1 (Homo sapiens) (from UniProt P60709) R183W
[21]
  effect of a mutation on the interaction: with no effect
[22]
  effect of a mutation on the interaction: causing an interaction
[23]
  effect of a mutation on the interaction: with no effect

## Tropomyosin alpha-1 chain (Homo sapiens), P09493-10 D175N
[2]
  effect of a mutation on the interaction: with no effect
[24]
  effect of a mutation on the interaction: causing an interaction
[3]
  effect of a mutation on the interaction: with no effect
[4]
  effect of a mutation on the interaction: with no effect
[5]
  effect of a mutation on the interaction: with no effect
[6]
  effect of a mutation on the interaction: with no effect
[7]
  effect of a mutation on the interaction: with no effect
[25]
  effect of a mutation on the interaction: causing an interaction
[9]
  effect of a mutation on the interaction: with no effect
[10]
  effect of a mutation on the interaction: with no effect
